Measured values from patent publication EP4803139A2.

Experiments:
[1] = biological target: human PCSK9 (proprotein convertase subtilisin/kexin type 9), wild type (human) (UniProt Q8NBP7); experiment: BIAcore solution equilibrium assay, 21B12 immobilised on CM5, one-site fit in KinExA Pro
[2] = biological target: human PCSK9 (proprotein convertase subtilisin/kexin type 9), wild type (human) (UniProt Q8NBP7); experiment: BIAcore SPR, human PCSK9, pH 6.0
[3] = biological target: human PCSK9 (proprotein convertase subtilisin/kexin type 9), wild type (human) (UniProt Q8NBP7); experiment: BIAcore SPR, antibody amine-coupled to CM5, PCSK9 as analyte, pH 7.4
[4] = biological target: human PCSK9 (proprotein convertase subtilisin/kexin type 9), wild type (human) (UniProt Q8NBP7); experiment: BIAcore SPR, human PCSK9, pH 7.4
[5] = biological target: human PCSK9 (proprotein convertase subtilisin/kexin type 9), wild type (human) (UniProt Q8NBP7); experiment: KinExA solution equilibrium, PCSK9-coated beads

Binder | Kd [1] | Kd [2] | koff [2] | kon [2] | Kd [3] | Kd [4] | koff [4] | kon [4] | Kd [5]
21B12, anti-PCSK9 huIgG4 (antibody, V domains shown) VH: QVQLVQSGAEVKKPGASVKVSCKASGYTLTSYGISWVRQAPGQGLEWMGWVSFYNGNTNYAQKLQGRGTMTTDPSTSTAYMELRSLRSDDTAVYYCARGYGMDVWGQGTTVTVSS VL: QSALTQPASVSGSPGQSITISCTGTSSDVGGYNSVSWYQQHPGKAPKLMIYEVSNRPSGVSNRFSGSKSGNTASLTISGLQAEDEADYYCNSYTSTSMVFGGGTKLTVLQ | 0.015 nM | 0.0073 nM | 1.68e-05 s⁻¹ | 2.29e+06 M⁻¹ s⁻¹ | 0.19 nM | 0.19 nM | 6.63e-06 s⁻¹ | 34900 M⁻¹ s⁻¹ | 
16F12, anti-PCSK9 huIgG4 (antibody, V domains shown) VH: QVHLVESGGGVVQPGRSLRLSCAASGFTFNSFGMHWVRQAPGKGLEWVALIWSDGSDEYYADSVKGRFTISRDNSKNTLYLQMNSLRAEDTAVYYCARAIAALYYYYGMDVWGQGTTVTVSS VL: QSVLTQPPSVSAAPGQKVTISCSGSSSNIGNNFVSWYQQLPGTAPKLLIYDYNKRPSGIPDRFSGSKSGTSATLGITGLQTGDEADYYCGTWDSSLSAYVFGTGTRVTVLQ |  | 0.029 nM | 7.01e-05 s⁻¹ | 2.39e+06 M⁻¹ s⁻¹ | 0.47 nM | 0.47 nM | 4.98e-05 s⁻¹ | 106000 M⁻¹ s⁻¹ | 0.015 nM
